Bridges are numbered along the chain shown (N, C = ends). Where no end group is shown, it is not given here.
B1: cyclic peptide (c) CQIPQRTATRC (peptide)
peptide: CQIPQRTATRC
modifications: disulfide 1-11 (inferred)
B2: cyclic peptide (i) CKQSYLHHLLC (peptide)
peptide: CKQSYLHHLLC
modifications: disulfide 1-11 (inferred)
B3: cyclic peptide (g) CHYIAGTVQGC (peptide)
peptide: CHYIAGTVQGC
modifications: disulfide 1-11 (inferred)
B4: cyclic peptide (e) CWMSPRHLGTC (peptide)
peptide: CWMSPRHLGTC
modifications: disulfide 1-11 (inferred)
B5: cyclic peptide (f) CRNCTVIQFSC (peptide)
peptide: CRNCTVIQFSC
modifications: disulfide 1-11
B6: cyclic peptide (j) CFQPLTPLCRC (peptide)
peptide: CFQPLTPLCRC
modifications: disulfide 1-11
B7: cyclic peptide (b) CSSCQNSPALC (peptide)
peptide: CSSCQNSPALC
modifications: disulfide 1-11
B8: cyclic peptide (d) CAKQRTDPGYC (peptide)
peptide: CAKQRTDPGYC
modifications: disulfide 1-11 (inferred)
B9: cyclic peptide (a) CSVRQGPVQKC (peptide)
peptide: CSVRQGPVQKC
modifications: disulfide 1-11 (inferred)
B10: cyclic peptide (k) CQSYHELLLQC (peptide)
peptide: CQSYHELLLQC
modifications: disulfide 1-11 (inferred)
B11: cyclic peptide (h) CPLVSLRDHSC (peptide)
peptide: CPLVSLRDHSC
modifications: disulfide 1-11 (inferred)

Biological target: T1, CKII substrate peptide RRREEETEEE (optimized consensus domain for CKII phosphorylation)
T1 peptide: RRREEETEEE
Assay: cell-based or functional assay

Binder	inhibition of CKII phosphorylation of the substrate peptide (32P, cpm on filters) [%]
B1	80
B2	80
B3	80
B4	80
B5	80
B6	80
B7	80
B8	80
B9	80
B10	80
B11	80
